Data on three molecules can be found in article PMC9011129.

In series [1] the target is T1, Larp-DM15 (Drosophila melanogaster, UniProt Q9VAW5 1330-1481). Kind of series: EMSA. A general note: In EMSA bound probe runs differently from free probe, usually more slowly.
For series [2], the target named is T1, Larp-DM15. Put plainly: EMSA. The source holds these as a separate data set.

Where two headings read alike, the source gives them in different places.

T1 sequence (Q9VAW5 1330-1481): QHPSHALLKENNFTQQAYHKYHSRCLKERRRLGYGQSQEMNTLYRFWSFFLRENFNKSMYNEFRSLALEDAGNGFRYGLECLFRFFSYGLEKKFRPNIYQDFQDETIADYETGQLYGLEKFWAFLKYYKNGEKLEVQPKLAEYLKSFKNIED

On to CUUUUUGGAAUACGAAGCUGACACCGCGUGGUGUUUUUGCUU (ssRNA, 5' cap (Vaccinia capping system)) [Non1 42-mer], for which the binding result in the series with Larp-DM15 [1] is reported as “binds”.
Regarding CUUUUGCCAUUGUCAGCCGACGAAGUGCUUUAACCCAAACUA (ssRNA, 5' cap (Vaccinia capping system)) [RpL30 42-mer], the binding result in the series with Larp-DM15 [2] was “binds”.
Same read-out and setting: for GAAAAGCCAUUGUCAGCCGACGAAGUGCUUUAACCCAAACUA (ssRNA, 5' cap (Vaccinia capping system)) [Purine-substituted RpL30 control] the value was “no binding”.
